Legend:
[1] = test system: AncSZ; experiment: phosphorylation enrichment, bacterial display (enrichment ratio); higher = better substrate or ligand; peptides without Tyr show the background
[2] = molecular target: EPHB1 (UniProt P54762); experiment: as above
[3] = molecular target: EPHB2 (UniProt P29323); experiment: as above
[4] = molecular target: FGFR1 (UniProt P11362); experiment: as above
[5] = molecular target: FGFR3 (UniProt P22607); experiment: as above
[6] = test system: Fer (mouse); experiment: as above
[7] = molecular target: Fes (UniProt P07332); experiment: as above
[8] = molecular target: Fyn (UniProt P06241); experiment: as above
[9] = molecular target: Hck (UniProt P08631); experiment: as above
[10] = molecular target: Jak2 (UniProt O60674); experiment: as above
[11] = molecular target: MERTK (UniProt Q12866); experiment: as above
[12] = test system: c-Abl (mouse); experiment: as above
[13] = test system: c-Src; experiment: as above
[14] = molecular target: Grb2 SH2 (UniProt P62993); experiment: SH2 binding enrichment of the phosphorylated peptide, bacterial display (enrichment ratio); higher = better substrate or ligand; peptides without Tyr show the background
[15] = molecular target: SHP2-C SH2; experiment: as above
[16] = molecular target: c-Src SH2; experiment: as above
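Wherever SH2 binding enrichment of the phosphorylated peptide, bacterial display is given: peptide library displayed on the E. coli surface as eCPX fusions, selected cells deep-sequenced, score is each peptide's frequency after selection divided by its frequency in the input.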
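Wherever phosphorylation enrichment, bacterial display is given: 11-residue human phosphosite peptides and single-mutation variants displayed on the E. coli surface, counted by deep sequencing, each peptide's frequency after selection divided by its frequency in the unselected input library; frequency after pTyr selection over input frequency; kinase dosed for 20-30% of maximal phosphorylation in three min.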

Chain of Jak2 (O60674 whole entry, looked up): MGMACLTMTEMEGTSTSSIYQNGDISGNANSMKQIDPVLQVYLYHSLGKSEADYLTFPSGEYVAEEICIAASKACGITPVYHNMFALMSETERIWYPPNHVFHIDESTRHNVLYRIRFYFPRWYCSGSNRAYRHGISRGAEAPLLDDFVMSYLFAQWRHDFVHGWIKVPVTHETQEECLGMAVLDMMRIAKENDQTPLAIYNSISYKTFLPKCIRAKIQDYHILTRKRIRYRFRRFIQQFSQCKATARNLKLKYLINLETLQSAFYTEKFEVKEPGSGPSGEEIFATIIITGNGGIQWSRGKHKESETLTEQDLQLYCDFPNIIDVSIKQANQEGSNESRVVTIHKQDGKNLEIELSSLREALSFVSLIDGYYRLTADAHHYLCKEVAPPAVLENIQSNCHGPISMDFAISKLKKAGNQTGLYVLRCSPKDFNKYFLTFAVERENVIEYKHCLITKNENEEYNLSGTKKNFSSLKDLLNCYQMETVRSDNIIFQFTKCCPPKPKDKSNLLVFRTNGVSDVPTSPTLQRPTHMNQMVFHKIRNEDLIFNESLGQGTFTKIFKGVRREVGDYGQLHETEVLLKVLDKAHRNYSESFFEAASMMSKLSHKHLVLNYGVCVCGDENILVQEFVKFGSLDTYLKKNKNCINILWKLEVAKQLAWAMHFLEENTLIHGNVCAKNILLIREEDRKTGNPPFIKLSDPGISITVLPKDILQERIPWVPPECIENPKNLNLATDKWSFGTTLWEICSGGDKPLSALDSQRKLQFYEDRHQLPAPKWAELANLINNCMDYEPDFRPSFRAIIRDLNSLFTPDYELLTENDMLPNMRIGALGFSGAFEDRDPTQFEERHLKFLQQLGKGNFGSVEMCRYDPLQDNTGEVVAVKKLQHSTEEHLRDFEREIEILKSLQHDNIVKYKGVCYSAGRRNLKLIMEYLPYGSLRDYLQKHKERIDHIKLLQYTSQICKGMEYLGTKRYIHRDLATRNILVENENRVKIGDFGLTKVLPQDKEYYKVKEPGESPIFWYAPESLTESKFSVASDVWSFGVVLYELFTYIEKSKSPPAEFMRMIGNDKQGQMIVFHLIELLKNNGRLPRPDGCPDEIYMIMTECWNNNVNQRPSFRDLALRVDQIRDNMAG
Chain of Fes (P07332 whole entry, looked up): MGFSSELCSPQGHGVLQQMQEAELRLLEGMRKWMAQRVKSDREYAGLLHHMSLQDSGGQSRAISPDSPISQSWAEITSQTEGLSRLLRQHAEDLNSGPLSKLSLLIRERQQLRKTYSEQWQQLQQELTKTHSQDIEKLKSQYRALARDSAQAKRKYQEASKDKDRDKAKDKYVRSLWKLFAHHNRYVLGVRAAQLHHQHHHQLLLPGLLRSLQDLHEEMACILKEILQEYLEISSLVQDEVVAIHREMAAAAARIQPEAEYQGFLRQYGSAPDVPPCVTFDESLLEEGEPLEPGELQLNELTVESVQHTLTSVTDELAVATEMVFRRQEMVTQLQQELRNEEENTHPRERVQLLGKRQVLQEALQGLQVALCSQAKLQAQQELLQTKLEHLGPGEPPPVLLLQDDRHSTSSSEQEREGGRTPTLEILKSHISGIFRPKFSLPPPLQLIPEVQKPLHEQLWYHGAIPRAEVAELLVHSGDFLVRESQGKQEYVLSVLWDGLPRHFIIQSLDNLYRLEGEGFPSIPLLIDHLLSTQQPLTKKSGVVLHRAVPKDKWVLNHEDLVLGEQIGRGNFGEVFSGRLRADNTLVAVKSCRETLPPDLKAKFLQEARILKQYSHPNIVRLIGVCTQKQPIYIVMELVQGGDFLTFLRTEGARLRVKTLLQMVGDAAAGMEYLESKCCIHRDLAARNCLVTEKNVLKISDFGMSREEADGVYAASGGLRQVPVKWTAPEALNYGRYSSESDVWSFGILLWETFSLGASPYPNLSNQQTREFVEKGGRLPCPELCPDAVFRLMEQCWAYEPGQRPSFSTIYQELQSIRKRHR
Chain of FGFR3 (P22607 whole entry, looked up): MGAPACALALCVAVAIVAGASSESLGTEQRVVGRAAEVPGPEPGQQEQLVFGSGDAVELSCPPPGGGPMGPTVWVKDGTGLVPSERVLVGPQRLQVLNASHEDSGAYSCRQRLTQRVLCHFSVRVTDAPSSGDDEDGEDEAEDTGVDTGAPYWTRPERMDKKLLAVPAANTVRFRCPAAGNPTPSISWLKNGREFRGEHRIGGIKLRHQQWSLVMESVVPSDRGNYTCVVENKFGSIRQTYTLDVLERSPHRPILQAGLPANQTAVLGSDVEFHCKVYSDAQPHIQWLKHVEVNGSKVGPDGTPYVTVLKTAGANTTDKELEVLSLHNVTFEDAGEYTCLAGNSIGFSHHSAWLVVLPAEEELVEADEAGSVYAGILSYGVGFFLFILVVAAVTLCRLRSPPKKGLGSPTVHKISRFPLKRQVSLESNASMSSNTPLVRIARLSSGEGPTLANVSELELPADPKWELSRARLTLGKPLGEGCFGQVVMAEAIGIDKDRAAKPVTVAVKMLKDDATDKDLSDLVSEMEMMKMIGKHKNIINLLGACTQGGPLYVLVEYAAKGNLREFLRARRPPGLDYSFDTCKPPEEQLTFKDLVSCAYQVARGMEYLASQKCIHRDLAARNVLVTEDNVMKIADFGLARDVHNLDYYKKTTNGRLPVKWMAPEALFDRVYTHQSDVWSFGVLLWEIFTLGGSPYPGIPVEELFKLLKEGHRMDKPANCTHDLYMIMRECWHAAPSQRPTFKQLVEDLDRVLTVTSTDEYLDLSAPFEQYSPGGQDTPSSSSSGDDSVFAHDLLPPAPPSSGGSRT
Chain of EPHB1 (P54762 whole entry, looked up): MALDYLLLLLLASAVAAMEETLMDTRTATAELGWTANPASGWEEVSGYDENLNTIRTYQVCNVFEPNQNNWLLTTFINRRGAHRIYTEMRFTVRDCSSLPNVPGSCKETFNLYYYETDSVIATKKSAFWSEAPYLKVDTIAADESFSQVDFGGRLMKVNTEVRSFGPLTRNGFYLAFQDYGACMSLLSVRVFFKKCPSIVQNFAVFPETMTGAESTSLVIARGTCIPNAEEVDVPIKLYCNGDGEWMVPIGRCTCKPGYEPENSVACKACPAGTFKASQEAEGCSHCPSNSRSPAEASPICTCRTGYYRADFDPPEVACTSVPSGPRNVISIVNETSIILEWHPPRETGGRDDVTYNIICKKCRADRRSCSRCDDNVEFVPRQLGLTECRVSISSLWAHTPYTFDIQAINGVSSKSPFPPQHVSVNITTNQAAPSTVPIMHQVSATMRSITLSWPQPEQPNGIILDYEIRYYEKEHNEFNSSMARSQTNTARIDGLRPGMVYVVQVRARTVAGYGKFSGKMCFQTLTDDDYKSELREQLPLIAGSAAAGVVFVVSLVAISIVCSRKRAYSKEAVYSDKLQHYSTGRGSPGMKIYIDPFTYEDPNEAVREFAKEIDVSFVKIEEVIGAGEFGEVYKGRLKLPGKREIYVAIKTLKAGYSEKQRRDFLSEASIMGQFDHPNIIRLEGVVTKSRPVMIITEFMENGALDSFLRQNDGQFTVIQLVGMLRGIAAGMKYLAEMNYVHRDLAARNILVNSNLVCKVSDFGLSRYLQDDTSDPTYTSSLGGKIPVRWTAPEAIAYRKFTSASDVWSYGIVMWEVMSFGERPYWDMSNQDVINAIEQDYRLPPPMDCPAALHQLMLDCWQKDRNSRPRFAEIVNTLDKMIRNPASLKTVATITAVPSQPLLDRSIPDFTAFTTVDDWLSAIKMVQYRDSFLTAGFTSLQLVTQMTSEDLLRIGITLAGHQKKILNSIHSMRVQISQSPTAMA
Chain of Hck (P08631 whole entry, looked up): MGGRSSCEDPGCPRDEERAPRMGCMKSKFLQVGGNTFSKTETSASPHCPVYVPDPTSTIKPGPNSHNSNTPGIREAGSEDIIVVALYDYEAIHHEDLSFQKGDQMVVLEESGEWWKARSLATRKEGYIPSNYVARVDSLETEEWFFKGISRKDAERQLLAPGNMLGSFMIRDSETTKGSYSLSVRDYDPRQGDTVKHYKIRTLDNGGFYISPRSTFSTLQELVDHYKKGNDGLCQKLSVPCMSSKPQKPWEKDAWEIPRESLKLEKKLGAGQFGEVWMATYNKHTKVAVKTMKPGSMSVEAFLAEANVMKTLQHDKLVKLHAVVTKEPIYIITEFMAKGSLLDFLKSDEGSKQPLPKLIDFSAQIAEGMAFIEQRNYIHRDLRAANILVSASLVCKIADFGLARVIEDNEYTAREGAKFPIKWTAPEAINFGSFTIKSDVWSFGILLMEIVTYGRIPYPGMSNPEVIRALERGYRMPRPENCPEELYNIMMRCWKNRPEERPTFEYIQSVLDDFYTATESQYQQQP
Chain of Fyn (P06241 whole entry, looked up): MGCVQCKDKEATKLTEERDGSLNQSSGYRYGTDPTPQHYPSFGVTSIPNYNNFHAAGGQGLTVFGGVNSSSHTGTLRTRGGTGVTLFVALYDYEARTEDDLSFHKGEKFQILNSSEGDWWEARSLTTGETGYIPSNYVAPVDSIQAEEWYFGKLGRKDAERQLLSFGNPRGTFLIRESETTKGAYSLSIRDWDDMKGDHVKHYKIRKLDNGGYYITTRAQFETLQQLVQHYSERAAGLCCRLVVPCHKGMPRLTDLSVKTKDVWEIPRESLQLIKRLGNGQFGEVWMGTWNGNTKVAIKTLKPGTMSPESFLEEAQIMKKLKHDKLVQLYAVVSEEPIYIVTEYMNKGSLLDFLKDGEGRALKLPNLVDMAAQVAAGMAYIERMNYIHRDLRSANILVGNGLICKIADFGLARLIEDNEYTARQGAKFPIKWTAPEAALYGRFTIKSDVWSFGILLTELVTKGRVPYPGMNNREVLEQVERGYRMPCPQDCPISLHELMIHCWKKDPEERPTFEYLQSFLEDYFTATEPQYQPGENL

Sequence	SH2 binding enrichment [14]	SH2 binding enrichment [15]	SH2 binding enrichment [16]	phosphorylation enrichment [1]	phosphorylation enrichment [2]	phosphorylation enrichment [3]	phosphorylation enrichment [4]	phosphorylation enrichment [5]	phosphorylation enrichment [6]	phosphorylation enrichment [7]	phosphorylation enrichment [8]	phosphorylation enrichment [9]	phosphorylation enrichment [10]	phosphorylation enrichment [11]	phosphorylation enrichment [12]	phosphorylation enrichment [13]
NTPNTYLRVNV [ADD2_Y440]	0.927	1.29	0.485	0.891	0.412	0.47	0.44	0.598	0.38	0.98	0.433	0.428	0.908	0.347	0.587	0.436
GCRSKHVGLWG [KCNQ1_Y184_Y184H]	1.17	0.906	0.86	0.518	0.316	0.314	0.36	0.388	0.325	0.481	0.385	0.328	0.409	0.397	0.516	0.359
AGQEEYSAMRD [HRAS_Y64]	0.816	0.643	0.679	0.879	0.507	0.547	0.477	0.591	0.429	0.931	0.462	0.498	0.788	0.418	0.678	0.456
RCKNHYAAFSV [C1QTNF1_Y145_S143N]	1.98	1.7	1.67	0.538	0.286	0.562	0.488	0.56	0.488	0.749	0.415	0.615	0.63	0.572	0.72	0.633
AKRKNYAPVTM [CFAP47_Y557_A561T]	1.03	1.16	1.19	0.459	0.365	0.364	0.418	0.34	0.286	0.518	0.387	0.371	0.351	0.431	0.454	0.445
HAVEDYQAIVD [CCT7_Y263_T259A]	1.09	0.768	0.696	1.54	0.73	1.03	0.864	1.05	0.653	1.47	0.792	0.714	1.25	3.12	1.19	0.942
ILKPDYQPLAI [HYDIN_Y1072]	0.814	0.847	0.541	0.613	0.489	0.403	0.376	0.533	0.379	0.65	0.415	0.484	0.556	0.425	0.62	0.376
EFISECCGEII [EZH2_Y641_Y641C]	0.954	0.739	0.501	1.27	0.672	0.695	0.723	0.724	0.508	1.18	0.498	0.55	1.07	0.503	1.24	0.472
FFSSEYHFVGG [CTSC_Y345_YF]	0.99	1.68	0.756	2.52	3.21	3.73	14.2	10.7	0.526	0.91	2	2.44	1.95	3.31	1.71	2.94
VDGFVYKLHPS [GCK_Y413_S411F]	0.693	0.55	0.519	0.844	0.434	0.484	0.407	0.55	0.368	0.962	0.53	0.419	0.999	0.288	0.562	0.643
QYQEKYKQMEQ [HCN4_Y531_V534M]	0.891	0.705	0.436	0.99	0.61	0.507	0.618	0.827	0.632	1.23	0.547	0.431	0.684	0.287	0.584	0.374
DQNVEYKGTVW [FHL1_Y117]	0.866	0.577	0.424	0.95	0.558	0.545	0.455	0.755	0.425	1.17	0.496	0.466	0.938	0.496	0.843	0.488
RLLRGYNQSAY [HLA-C_Y137_D138N]	1.11	1.09	0.825	0.44	0.538	0.454	0.386	0.499	0.321	0.412	0.41	0.507	0.307	0.275	0.36	0.267
QMVRMYASSYM [AVPR2_Y124_G122R]	0.899	0.64	0.455	1.31	0.842	0.787	0.622	0.988	0.717	1.28	0.557	0.621	0.764	0.659	0.675	0.464
WLFFRYLPIGC [ATP2A2_Y836_A838P]	1.26	1.36	0.796	1.29	0.529	0.531	0.538	0.778	0.559	1.3	0.38	0.477	1.14	0.415	0.657	0.345
LSSVSYVGCSL [ADGRD1_Y571_I569V]	0.798	0.691	0.519	1.2	0.633	1.06	0.949	1.04	0.98	1.46	1.16	1.01	1.23	1.05	1.35	1.12

More lines, main results first:

SH2 binding enrichment [14]	SH2 binding enrichment [15]	SH2 binding enrichment [16]	Sequence	phosphorylation enrichment [1]	phosphorylation enrichment [2]	phosphorylation enrichment [3]	phosphorylation enrichment [4]	phosphorylation enrichment [5]	phosphorylation enrichment [6]	phosphorylation enrichment [7]	phosphorylation enrichment [8]	phosphorylation enrichment [9]	phosphorylation enrichment [10]	phosphorylation enrichment [11]	phosphorylation enrichment [12]	phosphorylation enrichment [13]
1.21	0.659	0.68	SPDMLYQYLKQ [RPAP3_Y567]	1.09	3.35	1.78	3.36	2.04	11.6	0.692	1.18	8.16	0.727	7.39	0.856	1.96
0.781	0.694	0.691	FAKSVYWDNTL [NUP107_Y296_E298D_YF]	1	0.719	0.772	0.525	0.688	0.463	1.04	0.679	0.578	1.02	0.725	0.656	0.76
1.05	0.7	0.443	ADARMYGVLPW [PLP1_Y207]	0.793	0.945	2.48	0.511	0.545	0.594	0.84	9.58	9.33	0.7	3.38	1.24	6.65
0.861	0.707	0.609	LKALHYMAQTS [SACS_Y3367_V3369A]	0.89	0.759	0.634	0.765	0.887	0.746	0.94	0.705	0.623	0.751	0.749	0.907	0.587
1.3	1.16	0.855	FRSSLYLLMET [MYO5C_Y633]	1.24	0.804	0.591	0.724	1.16	0.687	1.37	0.473	0.576	1.29	1.46	0.896	0.521
0.747	0.676	0.622	PEIIAYQPYGK [PRKCG_Y529]	0.852	0.585	0.665	0.823	0.723	0.537	1.08	0.68	0.82	1.31	0.589	1.15	0.523
0.94	0.653	0.502	EKAEVYRSENE [RIOK2_Y348_G349R]	1.09	0.51	0.738	0.507	0.724	0.466	1.08	0.448	0.499	0.863	0.44	0.77	0.509
0.608	0.279	0.37	TEFSQYMRRKN [MAX_Y73_I71S_YF]	0.76	0.538	0.625	0.718	0.626	0.516	0.901	0.647	0.715	0.727	0.727	0.836	0.735
0.761	0.975	0.909	SAPPSYEETVA [LITAF_Y23]	1.1	0.6	0.636	0.65	0.672	0.531	1.09	0.645	0.569	0.828	0.414	0.727	0.398
0.647	0.589	6.12	EKSREYHRLYE [PIK3R1_Y463_D464H]	0.538	0.428	0.435	0.455	0.466	0.432	0.616	0.498	0.539	0.637	0.525	0.52	0.519
1.09	1.27	0.971	ERKQTYGSCRK [LACTB_Y473]	0.518	0.343	0.406	0.365	0.381	0.319	0.636	0.339	0.403	0.392	0.359	0.5	0.334
0.881	0.562	0.45	FADTAYNFRHG [PAH_Y166_I164T_YF]	0.599	0.363	0.386	0.342	0.39	0.317	0.62	0.369	0.379	0.45	0.305	0.544	0.415
0.835	0.55	0.688	AVLALYNSTRD [TGFB1_Y81]	0.755	0.466	0.53	0.493	0.547	0.531	0.942	0.462	0.511	0.78	0.639	0.702	0.489
1.15	1.04	0.851	KLLLKYSFHDV [RNF213_Y4141]	1.27	0.56	0.598	0.439	0.808	0.537	1.31	0.418	0.506	1.57	0.4	0.878	0.436
0.68	0.693	0.373	SVTCTYYPALN [TP53_Y126_S127Y]	1.52	0.645	0.617	0.499	0.831	0.556	1.36	0.48	0.592	1.36	0.412	1.01	0.575
0.831	10.5	6.04	YSGIYYKPESL [L2HGDH_Y103_H98Y]	2.36	9.38	12.4	11	9.82	9.95	0.968	9.17	8.46	6.33	10.9	29.5	6.07
0.866	0.567	0.516	EAVKNYTDKRG [PBRM1_Y672]	0.56	0.484	0.498	0.418	0.459	0.41	0.653	0.421	0.38	0.56	0.478	0.489	0.433

Source: the supplement of paper PMC10065799, “High-throughput profiling of sequence recognition by tyrosine kinases and SH2 domains using bacterial peptide display” (eLife, 2023)
